This note sets out measurements from article PMC6769069.

This assay addresses HybD endoprotease fused with peptide T18 of adenylate cyclase (pT18-hybD) (Escherichia coli) (UniProt P37182). Kind of assay: two-hybrid; bacterial two-hybrid (adenylate cyclase fragments T25 and T18) in E. coli BTH101; T25 at the N-terminus of the large subunit variants, T18 fused with HybD; anaerobic growth in TGYEP medium pH 6.5 at 30°C for 16 h; β-galactosidase activity according to Miller.
Sequence of UniProt P37182 (P37182 whole entry, the tested form may be a part): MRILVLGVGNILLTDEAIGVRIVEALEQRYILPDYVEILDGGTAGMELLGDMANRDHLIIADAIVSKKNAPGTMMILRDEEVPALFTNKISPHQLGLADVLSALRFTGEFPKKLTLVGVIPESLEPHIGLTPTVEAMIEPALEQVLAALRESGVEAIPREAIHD

“pro-HybC^§ fused to peptide T25 of adenylate cyclase (pT25-hybC^§) (from UniProt P0ACE0 2-552)” came in with a β-galactosidase activity of 820 units.
